Test results reported in the supplement of paper PMC10724198.
Values joined by “and” are separate entries in the source; they are usually repeats but may differ in a detail not shown here. Equal values may be shown once. ± gives the standard deviation of the averaged measurements.

What was measured:
[1] = tested on: Saccharomyces cerevisiae; experiment: protein stability index of tFT-peptide fusion in deletion strain of DOA10 (PSI (0-1 scale)); higher = more stable (slower turnover)
Procedure: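 MPS profiling in S. cerevisiae of two library types built from selected 12-aa C-degron peptides (IN1, IN2, LN1, LN3, VN2, R1-R5, W1-W3, Atg1 and Rpa12 C-termini): saturation mutagenesis libraries and C-terminal +1 capping libraries (13 aa). Each peptide is fused to the C-terminus of a sfGFP-mCherry timer, after a GGGS linker. Cells are FACS-sorted into 8 mCherry/sfGFP bins and sequenced. PSI runs from 0 (unstable) to 1 (stable), measured once in wild type and in the das1Δ or doa10Δ background.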

[2] = tested on: Saccharomyces cerevisiae; experiment: protein stability index of tFT-peptide fusion in wild type (PSI (0-1 scale)); higher = more stable (slower turnover); conditions: genetic background: wild type
[3] = tested on: Saccharomyces cerevisiae; experiment: protein stability index of tFT-peptide fusion in deletion strain of DAS1 (PSI (0-1 scale)); higher = more stable (slower turnover)
[4] = tested on: Saccharomyces cerevisiae; experiment: protein stability index of tFT-peptide fusion (C-terminal peptide) (PSI (0-1 scale)); higher = more stable (slower turnover); conditions: genetic background: wild type; temperature: 30 C
[5] = tested on: Saccharomyces cerevisiae; experiment: as above
Procedure: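 MPS profiling in S. cerevisiae of the tFT-X12 degron library: putative degron peptides plus stable controls, 12 aa, fused to the C-terminus of a sfGFP-mCherry timer. Cells are FACS-sorted into 8 mCherry/sfGFP bins and deep-sequenced. PSI runs from 0 (unstable) to 1 (stable). Backgrounds are wild type, das1Δ and doa10Δ at 30 °C, and wild type, das1Δ, cdc34-1 and cdc53-1 at 37 °C; 2-3 technical replicates each.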

[6] = genetic background: cdc34-1, temperature: 37 C
[7] = genetic background: cdc53-1, temperature: 37 C
[8] = genetic background: das1 deletion, temperature: 30 C
[9] = genetic background: das1 deletion, temperature: 37 C
[10] = genetic background: doa10 deletion, temperature: 30 C
[11] = genetic background: wild type, temperature: 30 C
[12] = genetic background: wild type, temperature: 37 C
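For protein stability index of tFT-peptide fusion (C-terminal peptide) in this document: PSI is a weighted mean of sequencing reads over stability bins, variants kept only with over 10 reads, mCherry proximal and sfGFP distal, peptide attached via GGGS linker.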
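For protein stability index of tFT-peptide fusion in deletion strain of DAS1 in this document: PSI is a weighted mean of each variant's read distribution over the sorted stability bins, computed only for variants having over 10 reads in total.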
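For protein stability index of tFT-peptide fusion in deletion strain of DOA10 in this document: PSI per variant is the weighted mean of its sequencing read distribution over the sorted stability bins, counting only variants with over 10 reads summed across bins.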
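For protein stability index of tFT-peptide fusion in wild type in this document: PSI derived as read-weighted mean over the 8 sorting bins, only variants exceeding 10 total reads kept, mCherry placed adjacent to the peptide and sfGFP distal.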

Row | Sequence | protein stability index [1] | protein stability index [2] | protein stability index [3] | other results
1 | ADTLPMCPLLLR | 0.679 | 0.56 |  | 
2 | AIELPMCPLLLR | 0.677 | 0.221 |  | 
3 | AIMLPMCPLLLR | 0.612 | 0.258 |  | 
4 | AITLPACPLLLR | 0.657 | 0.291 |  | 
5 | AITLPECPLLLR | 0.677 | 0.467 |  | 
6 | AITLPMCHLLLR | 0.663 | 0.158 |  | 
7 | AITLPMCPCLLR | 0.651 | 0.367 |  | 
8 | AITLPMCPGLLR | 0.673 | 0.635 |  | 
9 | AITLPMCPLLHR | 0.716 | 0.628 |  | 
10 | AITLPMCPLLLF | 0.512 | 0.462 |  | 
11 | AITLPMCPLLLL | 0.625 | 0.558 |  | 
12 | AITLPMCPLLLRE | 0.634 | 0.488 |  | 
13 | AITLPMCPLLLRH | 0.646 | 0.222 |  | 
14 | AITLPMCPLLLRI | 0.485 | 0.0995 |  | 
15 | AITLPMCPLLLRR | 0.673 | 0.34 |  | 
16 | AITLPMCPLLLRV | 0.334 | 0.11 |  | 
17 | AITLPMCPLRLR | 0.666 | 0.453 |  | 
18 | AITLPMCPRLLR | 0.675 | 0.648 |  | 
19 | AITLPMDPLLLR | 0.681 | 0.627 |  | 
20 | AITLPMRPLLLR | 0.637 | 0.176 |  | 
21 | AITLPMYPLLLR | 0.651 | 0.161 |  | 
22 | AITLPPCPLLLR | 0.673 | 0.232 |  | 

Row | Sequence | protein stability index [1] | protein stability index [2] | protein stability index [3] | other results
23 | AITYPMCPLLLR | 0.655 | 0.287 |  | 
24 | AQTLPMCPLLLR | 0.686 | 0.394 |  | 
25 | ARWRVGLWRGAS |  | 0.37 | 0.679 | protein stability index [4]: 0.448 ± 0.028; protein stability index [5, 6]: 0.66 ± 0.033; protein stability index [5, 7]: 0.7486 ± 0.0018; protein stability index [5, 8]: 0.648 ± 0.021; protein stability index [5, 9]: 0.764 ± 0.011; protein stability index [5, 10]: 0.259 ± 0.0043; protein stability index [5, 11]: 0.3 ± 0.035; protein stability index [5, 12]: 0.612 ± 0.012
26 | CCVSLPILLFFR | 0.606 | 0.0702 |  | 
27 | CLVHLPILLFFR | 0.56 | 0.0596 |  | 
28 | FSMRWTFRYWVN |  | 0.0664 and 0.0463 | 0.528 and 0.476 | protein stability index [4]: 0.112 ± 0.021; protein stability index [5, 6]: 0.301 ± 0.016; protein stability index [5, 7]: 0.545 ± 0.03; protein stability index [5, 8]: 0.531 ± 0.025; protein stability index [5, 9]: 0.573 ± 0.011; protein stability index [5, 10]: 0.0438 ± 0.012; protein stability index [5, 11]: 0.0542 ± 0.0043; protein stability index [5, 12]: 0.0931 ± 0.022
29 | LVVYLSCVACIN |  | 0.0193 and 0.0155 | 0.032 and 0.0307 | protein stability index [4]: 0.0328 ± 0.013; protein stability index [5, 6]: 0.0319 ± 0.015; protein stability index [5, 7]: 0.028 ± 0.0046; protein stability index [5, 8]: 0.0277 ± 0.0056; protein stability index [5, 9]: 0.0456 ± 0.0096; protein stability index [5, 10]: 0.0223 ± 0.0051; protein stability index [5, 11]: 0.0185 ± 0.0067; protein stability index [5, 12]: 0.0515 ± 0.034
30 | RLIQGLPVQFLN |  | 0.0788 | 0.651 | 
31 | RLIQMLPVQFLN |  | 0.0223 | 0.626 | 
32 | RLIQPCPVQFLN |  | 0.0722 | 0.612 | 
33 | RLIQPDPVQFLN |  | 0.216 | 0.565 | 
34 | RLIQPLKVQFLN |  | 0.054 | 0.805 | 
35 | RLIQPLPIQFLN |  | 0.0384 | 0.593 | 
36 | RLIQPLPKQFLN |  | 0.103 | 0.559 | 
37 | RLIQPLPMQFLN |  | 0.0399 | 0.636 | 
38 | RLIQPLPVQFEN |  | 0.627 | 0.603 | 
39 | RLIQPLPVQFHN |  | 0.24 | 0.616 | 
40 | RLIQPLPVQFLA |  | 0.139 | 0.589 | 
41 | RLIQPLPVQFLF |  | 0.247 | 0.779 | 
42 | RLIQPLPVQFLL |  | 0.2 | 0.586 | 
43 | RLIQPLPVQFTN |  | 0.377 | 0.723 | 
44 | RLIQPLPVQFYN |  | 0.0309 | 0.783 | 

Row | Sequence | protein stability index [1] | protein stability index [2] | protein stability index [3] | other results
45 | RLIQPLPVQILN |  | 0.309 | 0.774 | 
46 | RLIQPLPVQSLN |  | 0.457 | 0.612 | 
47 | RLIQPLPVTFLN |  | 0.0559 | 0.7 | 
48 | RLIQPLYVQFLN |  | 0.0572 | 0.629 | 
49 | RLIQPYPVQFLN |  | 0.0613 | 0.578 | 
50 | SKHKKGQKQKIN |  | 0.153 | 0.625 | 
51 | STSCGYKFRTNN |  | 0.237 | 0.669 | 
52 | VNGAVGGWRLVG |  | 0.141 | 0.68 | 
53 | VRGAVGGSRLVG |  | 0.642 | 0.669 | 
54 | VRGAVGGWILVG |  | 0.25 | 0.638 | 
55 | VRGAVGGWKLVG |  | 0.203 | 0.679 | 
56 | VRGAVGGWRLGG |  | 0.69 | 0.628 | 
57 | VRGAVGGWRLSG |  | 0.403 | 0.67 | 
58 | VRGAVGGWRLVGI |  | 0.664 | 0.679 | 
59 | VRGAVGGWRLVL |  | 0.572 | 0.68 | 
60 | VRGAVGLWRLVG |  | 0.164 | 0.675 | 
61 | VRGAVVGWRLVG |  | 0.141 | 0.66 | 
62 | VRGAYGGWRLVG |  | 0.114 | 0.664 | 
63 | VTSCGYKFRTNN |  | 0.214 | 0.674 | 
64 | WDKRNHLIKLLN |  | 0.113 | 0.602 | 
65 | WRWRVGLWRGAS |  | 0.186 | 0.764 | 
66 | WVVYLSCVACIN |  | 0.0879 | 0.0589 | 
